Source: paper PMC2864353 (Blood coagulation & fibrinolysis : an international journal …, 2010)
Read-outs that look alike come from different tables or passages of the source.

Assays:
Test in all cases: SPR
[1] = molecular target: soluble tissue factor (TF 1-219) (UniProt P13726 33-251)
[2] = molecular target: T1, recombinant tissue factor containing transmembrane spanning domain (TF 1-248), relipidated
T1 chain: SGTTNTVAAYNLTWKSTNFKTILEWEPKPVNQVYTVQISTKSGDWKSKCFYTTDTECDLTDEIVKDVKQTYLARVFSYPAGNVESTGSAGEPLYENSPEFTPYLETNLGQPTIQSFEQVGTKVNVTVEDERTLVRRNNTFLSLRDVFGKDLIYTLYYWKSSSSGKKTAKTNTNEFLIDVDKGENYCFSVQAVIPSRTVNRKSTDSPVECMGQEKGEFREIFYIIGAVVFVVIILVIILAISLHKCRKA

[3] = molecular target: T1, recombinant tissue factor containing …

B1: Factor VIIa (enzyme)
chain 1: ANAFLEELRPGSLERECKEEQCSFEEAREIFKDAERTKLFWISYSDGDQCASSPCQNGGSCKDQLQSYICFCLPAFEGRNCETHKDDQLICVNENGGCEQYCSDHTGTKRSCRCHEGYSLLADGVSCTPTVEYPCGKIPILEKRNASKPQGR
chain 2: IVGGKVCPKGECPWQVLLLVNGAQLCGGTLINTIWVVSAAHCFDKIKNWRNLIAVLGEHDLSEHDGDEQSRRVAQVIIPSTYVPGTTNHDIALLRLHQPVVLTDHVVPLCLPERTFSERTLAFVRFSLVSGWGQLLDRGATALELMVLNVPRLMTQDCLQQSRKVGDSPNITEYMFCAGYSDGSKDSCKGDSGGPHATHYRGTWYLTGIVSWGQGCATVGHFGVYTRVSQYIEWLQKLMRSEPRPGVLLRAPFP
[1]
  Kd: 11.6 nM
  koff: 0.00592 s⁻¹
  kon: 475000 M⁻¹ s⁻¹
[2]
  Kd: 0.0457 nM
  koff: 0.000234 s⁻¹
  kon: 2.73e+06 M⁻¹ s⁻¹
[3]
  Kd: 0.0474 nM
  koff: 0.000233 s⁻¹
  kon: 2.58e+06 M⁻¹ s⁻¹
